Assay results taken from patent US20210107998A1 (Boehringer Ingelheim, published 2021).

T1: Recombinant human IL-23 (human, UniProt P29460 23-328)
T1 construct: also called hu IL23
T1 sequence 1: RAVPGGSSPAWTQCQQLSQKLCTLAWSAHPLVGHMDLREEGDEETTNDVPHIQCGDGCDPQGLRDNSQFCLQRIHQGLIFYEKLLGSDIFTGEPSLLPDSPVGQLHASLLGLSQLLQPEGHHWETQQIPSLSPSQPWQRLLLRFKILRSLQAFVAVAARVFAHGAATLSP
T1 sequence 2: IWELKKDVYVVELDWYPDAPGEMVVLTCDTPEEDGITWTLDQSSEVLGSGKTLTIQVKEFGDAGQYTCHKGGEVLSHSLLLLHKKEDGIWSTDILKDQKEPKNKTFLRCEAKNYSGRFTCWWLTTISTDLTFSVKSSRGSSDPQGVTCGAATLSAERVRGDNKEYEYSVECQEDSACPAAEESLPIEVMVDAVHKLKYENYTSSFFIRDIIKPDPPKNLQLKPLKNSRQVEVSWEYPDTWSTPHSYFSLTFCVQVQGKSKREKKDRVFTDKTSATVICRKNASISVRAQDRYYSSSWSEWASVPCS

T2: Linked human IL-23 (Boehringer Ingelheim Pharmaceuticals, Inc.) (human, UniProt P29460 23-328)
T2 sequence 1: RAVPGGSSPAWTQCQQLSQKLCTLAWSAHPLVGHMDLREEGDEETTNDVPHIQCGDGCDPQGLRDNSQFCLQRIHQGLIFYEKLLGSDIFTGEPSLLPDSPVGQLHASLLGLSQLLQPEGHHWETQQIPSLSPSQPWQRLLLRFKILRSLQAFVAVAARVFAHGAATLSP
T2 sequence 2: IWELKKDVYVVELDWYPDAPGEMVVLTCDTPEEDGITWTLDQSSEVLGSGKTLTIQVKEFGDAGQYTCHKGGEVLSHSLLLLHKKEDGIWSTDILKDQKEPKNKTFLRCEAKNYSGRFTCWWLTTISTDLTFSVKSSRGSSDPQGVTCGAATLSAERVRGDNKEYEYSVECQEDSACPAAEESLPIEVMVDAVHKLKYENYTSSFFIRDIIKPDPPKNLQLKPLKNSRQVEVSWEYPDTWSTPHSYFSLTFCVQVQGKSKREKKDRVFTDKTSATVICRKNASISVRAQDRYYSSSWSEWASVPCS


Columns and labels:
[1] = molecular target: T1, Recombinant human IL-23; assay: BLI (Octet RED96, streptavidin tips), compound incubated 48 h at 37 C in whole blood vs kinetic buffer
Description: (§1) A whole blood interference assay was developed on an Octet RED96 to detect the effects of non-specific binding or off-target binding for compounds in the presence of whole blood (WB). The compound solutions in whole blood and 1× kinetic running buffer (1×kb) were incubated at a temperature of 37° C. for 48 hours. Kinetic measurements for the incubated compound samples were performed with an Octet RED96 equipped with streptavidin (SA) biosensor tips (ForteBio, Menlo Park, Calif.) at 27° C. The ratio of the on-rates/binding signals in buffer and whole blood were reported. A ratio <2 was considered to show no interference.

[2] = molecular target: T3, human BAFF (human, UniProt Q9Y275 134-285, limits assumed); assay: as above
T3 construct: also called hu BAFF; hBAFF
Description: as §1

[3] = molecular target: T4, Recombinant human BAFF trimer (Boehringer Ingelheim Pharmaceuticals, Inc.) (human, UniProt Q9Y275 134-285, limits assumed); assay: cell-based or functional assay
[4] = molecular target: T5, cynomolgus BAFF (cynomolgus, UniProt A0A2K5V2X4 134-285); assay: SPR (ProteOn XPR36), compound captured on goat anti-human IgG Fc, antigen injected
T5 construct: construct not described
Description: (§2) SPR experiments were performed on a ProteOn XPR36 instrument (Bio Rad). A GLM chip was preconditioned with sequential injections of 60 sec of 0.5% SDS, 50 mM NaOH, and 100 mM HCl at a flow rate of 30 μl/min both vertical and horizontal directions.
(§3) The preconditioned GLM chip was then activated by an injection of EDC (76.7 mg/ml) and sulfo-NHS (21.7 mg/ml) mixture with ratio of 1:1 in 6 horizontal channels. Goat-anti-human IgG (GAHA) Fc gamma (Invitrogen) at a concentration of 30 μg/ml in 10 mM, pH 5.0 sodium acetate buffer was immobilized to 8,000 resonance units on the activated GLM chip in 6 horizontal channels. The chip was finally deactivated with 1 M ethanolamine HCl in 6 horizontal channels. The prepared GAHA chip was rotated to vertical direction to capture test compounds, over 5 vertical channels and the last channel was used as a column reference. The captured chip was then rotated again to the horizontal direction for binding. […] The dissociation was allowed for 2 hour. The GAHA surface was regenerated using short pulse injection (18 seconds) of 0.85% phosphoric acid (Bio Rad) at a flow rate of 100 μl/min both horizontal and vertical directions after 10 min association and 2 hr dissociation. The regenerated GAHA was ready for another binding cycle.

[5] = molecular target: T6, cynomolgus IL-23 (cynomolgus, UniProt H6WS56 20-189); assay: as above
Description: as §2, §3

[6] = molecular target: T2, Linked human IL-23 (Boehringer …); assay: as above
Description: as §2, §3

[7] = molecular target: T3, human BAFF; assay: as above
Description: as §2, §3

[8] = molecular target: Recombinant human BAFF 60mer (Boehringer Ingelheim Pharmaceuticals, Inc.) (human, UniProt Q9Y275 134-285, limits assumed); assay: cell-based or functional assay
[9] = molecular target: T6, cynomolgus IL-23; assay: cell-based or functional assay
[10] = molecular target: T1, Recombinant human IL-23; assay: cell-based or functional assay
[11] = molecular target: T4, Recombinant human BAFF trimer …; assay: cell-based or functional assay; remark: listed apart in the source
[12] = molecular target: membrane-bound human BAFF on fixed CHO-K1 cells (human, UniProt Q9Y275 1-285); assay: cell-based or functional assay
[13] = molecular target: T1, Recombinant human IL-23; assay: cell-based or functional assay; remark: listed apart in the source
[14] = molecular target: Recombinant cynomolgus BAFF trimer (Boehringer Ingelheim Pharmaceuticals, Inc.) (cynomolgus, UniProt A0A2K5V2X4 134-285); assay: cell-based or functional assay

| Ratio of binding signal in WB/kinetic buffer [1] | Ratio of binding signal in WB/kinetic buffer [2] | IC50, NFkB luciferase reporter, human BAFFR-CHO cells [3] [nM] | IC90, NFkB luciferase reporter, human BAFFR-CHO cells [3] [nM] | Kd [4] [nM] | Kd [5] [nM] | Kd [6] [nM] | Kd [7] [nM] | IC50, NFkB luciferase reporter, human BAFFR-CHO cells [8] [nM] | IC90, NFkB luciferase reporter, human BAFFR-CHO cells [8] [nM] | IC50, IL-23-induced mouse IL-17 release from mouse splenocytes [9] [nM] | IC90, IL-23-induced mouse IL-17 release from mouse splenocytes [9] [nM] | IC50, IL-23-induced mouse IL-17 release from mouse splenocytes [10] [nM] | IC90, IL-23-induced mouse IL-17 release from mouse splenocytes [10] [nM] | IC50, STAT3-luciferase reporter in DB lymphoblast B cells [13] [nM] | IC90, STAT3-luciferase reporter in DB lymphoblast B cells [13] [nM] | Binder | further results |
| --- | --- | --- | --- | --- | --- | --- | --- | --- | --- | --- | --- | --- | --- | --- | --- | --- | --- |
| 1.2 | 1 | 0.072 | 0.293 | < 0.015 | < 0.015 | < 0.015 | < 0.015 | 1.3 | 7.39 | – | – | – | – | – | – | Compound F (bispecific antibody, human IgG4 S228P, kappa, Large chain: IL23A(1) VL - BAFF(1) VH - LGGGSG - IgG4-Pro-YTE; small chain: BAFF(1) VL - IL23A(1) VH - LGGGSG - CL) chain 1: DIQMTQSPSSLSASVGDRVTITCKASRDVAIAVAWYQQKPGKVPKLLIYWASTRHTGVPSRFSGSGSRTDFTLTISSLQPEDVADYFCHQYSSYPFTFGSGTKLEIKGGGSGGGGQVQLQQSGAEVKKPGSSVRVSCKASGGTFNNNAINWVRQAPGQGLEWMGGIIPMFGTAKYSQNFQGRVAITADESTGTASMELSSLRSEDTAVYYCARSRDLLLFPHHALSPWGRGTMVTVSSLGGGSGASTKGPSVFPLAPCSRSTSESTAALGCLVKDYFPEPVTVSWNSGALTSGVHTFPAVLQSSGLYSLSSVVTVPSSSLGTKTYTCNVDHKPSNTKVDKRVESKYGPPCPPCPAPEFLGGPSVFLFPPKPKDTLYITREPEVTCVVVDVSQEDPEVQFNWYVDGVEVHNAKTKPREEQFNSTYRVVSVLTVLHQDWLNGKEYKCKVSNKGLPSSIEKTISKAKGQPREPQVYTLPPSQEEMTKNQVSLTCLVKGFYPSDIAVEWESNGQPENNYKTTPPVLDSDGSFFLYSRLTVDKSRWQEGNVFSCSVMHEALHNHYTQKSLSLSLG chain 2: SSELTQDPAVSVALGQTVRVTCQGDSLRSYYASWYQQKPGQAPVLVIYGKNNRPSGIPDRFSGSSSGNTASLTITGAQAEDEADYYCSSRDSSGNHWVFGGGTELTVLGGGSGGGGQVQLVQSGAEVKKPGSSVKVSCKASGYTFTDQTIHWMRQAPGQGLEWIGYIYPRDDSPKYNENFKGKVTITADKSTSTAYMELSSLRSEDTAVYYCAIPDRSGYAWFIYWGQGTLVTVSSLGGGSGRTVAAPSVFIFPPSDEQLKSGTASVVCLLNNFYPREAKVQWKVDNALQSGNSQESVTEQDSKDSTYSLSSTLTLSKADYEKHKVYACEVTHQGLSSPVTKSFNRGEC | – |
| 1.1 | 1.2 | 0.043 | 0.18 | < 0.015 | < 0.015 | < 0.015 | < 0.015 | 0.006 | 0.019 | 0.155 | 1.31 | 0.146 | 1.65 | 0.145 | 1.23 | Compound A (bispecific antibody, human IgG1, kappa, L234A L235A, Made in CHO-S cells) chain 1: DIQMTQSPSSLSASVGDRVTITCKASRDVAIAVAWYQQKPGKVPKLLIYWASTRHTGVPSRFSGSGSRTDFTLTISSLQPEDVADYFCHQYSSYPFTFGSGTKLEIKGGGSGGGGQVQLVQSGAEVKKPGASVKVSCKASGYSFSTFFIHWVRQAPGQGLEWIGRIDPNSGATKYNEKFESRVTMTRDTSISTAYMELSRLRSDDTAVYYCARGEDLLIRTDALDYWGQGTSVTVSSLGGGSGASTKGPSVFPLAPSSKSTSGGTAALGCLVKDYFPEPVTVSWNSGALTSGVHTFPAVLQSSGLYSLSSVVTVPSSSLGTQTYICNVNHKPSNTKVDKRVEPKSCDKTHTCPPCPAPEAAGGPSVFLFPPKPKDTLYITREPEVTCVVVDVSHEDPEVKFNWYVDGVEVHNAKTKPREEQYNSTYRVVSVLTVLHQDWLNGKEYKCKVSNKALPAPIEKTISKAKGQPREPQVYTLPPSREEMTKNQVSLTCLVKGFYPSDIAVEWESNGQPENNYKTTPPVLDSDGSFFLYSKLTVDKSRWQQGNVFSCSVMHEALHNHYTQKSLSLSPG chain 2: DIQMTQSPSSLSASVGDRVSITCKASQNAGIDVAWFQQKPGKAPKLLIYSKSNRYTGVPSRFSGSGSGTDFTLTISSLQPEDFATYYCLQYRSYPRTFGQGTKLEIKGGGSGGGGQVQLVQSGAEVKKPGSSVKVSCKASGYTFTDQTIHWMRQAPGQGLEWIGYIYPRDDSPKYNENFKGKVTITADKSTSTAYMELSSLRSEDTAVYYCAIPDRSGYAWFIYWGQGTLVTVSSLGGGSGRTVAAPSVFIFPPSDEQLKSGTASVVCLLNNFYPREAKVQWKVDNALQSGNSQESVTEQDSKDSTYSLSSTLTLSKADYEKHKVYACEVTHQGLSSPVTKSFNRGEC | IC50 Geomean, NFkB luciferase reporter, human TACI-CHO cells [11]: 0.159 nM; IC90 Geomean, NFkB luciferase reporter, human TACI-CHO cells [11]: 0.417 nM; IC50, NFkB luciferase reporter, human BAFFR-CHO cells stimulated with fixed human BAFF CHO-K1 cells [12]: 0.118 nM; IC90, NFkB luciferase reporter, human BAFFR-CHO cells stimulated with fixed human BAFF CHO-K1 cells [12]: 1.02 nM; IC50 Geomean, NFkB luciferase reporter, human BAFFR-CHO cells [14]: 0.132 nM; IC90 Geomean, NFkB luciferase reporter, human BAFFR-CHO cells [14]: 0.191 nM |
| 1.3 | 1.1 | 0.035 | 0.11 | < 0.015 | < 0.015 | < 0.015 | < 0.015 | 0.006 | 0.014 | 0.11 | 0.88 | 0.133 | 0.761 | 0.189 | 2.33 | Compound C (bispecific antibody, human IgG1, kappa, L234A L235A, Tetravalent format) chain 1: DIQMTQSPSSLSASVGDRVTITCKASRDVAIAVAWYQQKPGKVPKLLIYWASTRHTGVPSRFSGSGSRTDFTLTISSLQPEDVADYFCHQYSSYPFTFGSGTKLEIKGGGSGGGGQVQLVQSGAEVKKPGASVKVSCKASGYSFSTFFIHWVRQRPGQGLEWIGRIDPNSGATKYNEKFESKVTLTRDTSISTAYMELSRLRSDDTAVYYCARGEDLLIRTDALDYWGQGTSVTVSSLGGGSGASTKGPSVFPLAPSSKSTSGGTAALGCLVKDYFPEPVTVSWNSGALTSGVHTFPAVLQSSGLYSLSSVVTVPSSSLGTQTYICNVNHKPSNTKVDKRVEPKSCDKTHTCPPCPAPEAAGGPSVFLFPPKPKDTLYITREPEVTCVVVDVSHEDPEVKFNWYVDGVEVHNAKTKPREEQYNSTYRVVSVLTVLHQDWLNGKEYKCKVSNKALPAPIEKTISKAKGQPREPQVYTLPPSREEMTKNQVSLTCLVKGFYPSDIAVEWESNGQPENNYKTTPPVLDSDGSFFLYSKLTVDKSRWQQGNVFSCSVMHEALHNHYTQKSLSLSPG chain 2: DIQMTQSPSSLSASVGDRVSITCKASQNAGIDVAWFQQKPGKAPKLLIYSKSNRYTGVPSRFSGSGSGTDFTLTISSLQPEDFADYYCLQYRSYPRTFGGGTKLEIKGGGSGGGGQVQLVQSGAEVKKPGSSVKVSCKASGYTFTDQTIHWMRQAPGQGLEWIGYIYPRDDSPKYNENFKGKVTITADKSTSTAYMELSSLRSEDTAVYYCAIPDRSGYAWFIYWGQGTLVTVSSLGGGSGRTVAAPSVFIFPPSDEQLKSGTASVVCLLNNFYPREAKVQWKVDNALQSGNSQESVTEQDSKDSTYSLSSTLTLSKADYEKHKVYACEVTHQGLSSPVTKSFNRGEC | – |
